The target in data set [1] is T1, Topo IIIα (Homo sapiens, UniProt Q13472 1-1001).
T1 sequence: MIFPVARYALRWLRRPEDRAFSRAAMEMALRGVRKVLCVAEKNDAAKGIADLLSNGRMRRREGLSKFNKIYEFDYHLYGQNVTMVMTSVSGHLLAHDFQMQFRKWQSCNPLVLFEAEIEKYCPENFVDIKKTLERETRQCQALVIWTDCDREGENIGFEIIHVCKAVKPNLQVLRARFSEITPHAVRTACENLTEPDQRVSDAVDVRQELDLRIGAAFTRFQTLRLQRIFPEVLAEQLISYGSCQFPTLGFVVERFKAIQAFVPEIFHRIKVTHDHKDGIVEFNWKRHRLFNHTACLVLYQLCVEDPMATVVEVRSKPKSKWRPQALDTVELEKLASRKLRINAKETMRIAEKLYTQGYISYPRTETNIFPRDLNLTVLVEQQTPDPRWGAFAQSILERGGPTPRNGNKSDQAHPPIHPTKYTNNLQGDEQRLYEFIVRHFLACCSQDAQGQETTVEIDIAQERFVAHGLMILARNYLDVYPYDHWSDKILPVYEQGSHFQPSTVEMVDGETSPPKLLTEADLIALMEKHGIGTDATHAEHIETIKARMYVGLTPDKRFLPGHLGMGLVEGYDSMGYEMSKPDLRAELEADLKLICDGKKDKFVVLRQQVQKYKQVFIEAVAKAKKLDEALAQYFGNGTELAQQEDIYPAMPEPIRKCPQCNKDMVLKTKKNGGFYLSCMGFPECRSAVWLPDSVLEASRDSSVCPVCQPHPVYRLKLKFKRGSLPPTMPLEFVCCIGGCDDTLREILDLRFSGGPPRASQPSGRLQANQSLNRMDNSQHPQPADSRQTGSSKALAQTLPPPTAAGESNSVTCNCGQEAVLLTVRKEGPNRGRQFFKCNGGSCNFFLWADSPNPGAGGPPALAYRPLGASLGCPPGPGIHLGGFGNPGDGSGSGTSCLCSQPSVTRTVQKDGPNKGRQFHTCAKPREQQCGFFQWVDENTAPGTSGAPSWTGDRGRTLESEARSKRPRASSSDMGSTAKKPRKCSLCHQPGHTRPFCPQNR
As to the kind of experiment: EMSA; 25-100 nM protein; two discrete complexes; EMSA: 35 mM Tris-HCl pH 7.5, 1 mM DTT, 100 ng/μl BSA, 2 mM MgCl2, 100 mM NaCl, 25°C, 20 min, 5 nM DNA ends (Mg2+ and ATP omitted in Figure 3B). To be noted: protein: recombinant; label: 32P; blunt. A general note: A gel shift assay detects complexes by their altered migration in electrophoresis.

A further data set deals with T2, RMI1-RMI2 (Homo sapiens, UniProt Q9H9A7;Q96E14 1-625;1-147).
T2 sequence 1: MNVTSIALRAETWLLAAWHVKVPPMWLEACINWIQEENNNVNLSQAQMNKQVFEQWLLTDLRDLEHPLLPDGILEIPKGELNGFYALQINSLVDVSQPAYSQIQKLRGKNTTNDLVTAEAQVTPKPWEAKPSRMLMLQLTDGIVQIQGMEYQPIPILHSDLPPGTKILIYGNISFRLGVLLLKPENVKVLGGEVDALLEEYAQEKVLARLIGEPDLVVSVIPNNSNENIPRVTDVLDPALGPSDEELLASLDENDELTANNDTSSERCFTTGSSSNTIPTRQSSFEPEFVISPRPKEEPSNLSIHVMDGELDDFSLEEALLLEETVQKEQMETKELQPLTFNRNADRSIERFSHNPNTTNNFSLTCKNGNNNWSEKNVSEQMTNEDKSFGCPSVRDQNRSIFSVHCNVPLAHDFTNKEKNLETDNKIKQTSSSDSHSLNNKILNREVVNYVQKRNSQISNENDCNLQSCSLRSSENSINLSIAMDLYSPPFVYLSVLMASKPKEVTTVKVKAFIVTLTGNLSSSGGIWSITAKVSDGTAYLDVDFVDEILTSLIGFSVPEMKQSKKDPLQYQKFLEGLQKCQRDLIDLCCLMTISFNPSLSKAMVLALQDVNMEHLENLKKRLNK
T2 sequence 2: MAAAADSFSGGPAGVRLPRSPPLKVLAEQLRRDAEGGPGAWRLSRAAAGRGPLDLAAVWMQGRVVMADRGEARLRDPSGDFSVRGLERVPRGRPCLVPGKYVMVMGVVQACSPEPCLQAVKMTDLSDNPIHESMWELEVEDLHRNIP
The data set can be described thus: EMSA; 25-100 nM protein; EMSA: 35 mM Tris-HCl pH 7.5, 1 mM DTT, 100 ng/μl BSA, 2 mM MgCl2, 100 mM NaCl, 25°C, 20 min, 5 nM DNA ends (Mg2+ and ATP omitted in Figure 3B). The settings on record: protein: recombinant; copies: 1;1; label: 32P; blunt.

A further data set concerns the target BLM;DNA2-D277A (Homo sapiens;Homo sapiens, UniProt P54132;P51530 1-1417;1-1060, |D277A). As to the kind of experiment: EMSA; 7.5-15 nM BLM with 10 or 20 nM DNA2-D277A; binding enhanced over BLM alone; no ATP, no Mg2+; EMSA: 35 mM Tris-HCl pH 7.5, 1 mM DTT, 100 ng/μl BSA, 2 mM MgCl2, 100 mM NaCl, 25°C, 20 min, 5 nM DNA ends (Mg2+ and ATP omitted in Figure 3B). To be noted: protein: recombinant;recombinant; copies: 1;1; label: 32P; blunt.

Data set [2] deals with T1, Topo IIIα. As to the kind of experiment: EMSA; 25-100 nM protein; streptavidin on one end; shifted efficiently; EMSA: 35 mM Tris-HCl pH 7.5, 1 mM DTT, 100 ng/μl BSA, 2 mM MgCl2, 100 mM NaCl, 25°C, 20 min, 5 nM DNA ends (Mg2+ and ATP omitted in Figure 3B). To be noted: protein: recombinant; label: 32P; blunt.

Chain of BLM;DNA2-D277A (P54132 whole entry, chain 1 of 2): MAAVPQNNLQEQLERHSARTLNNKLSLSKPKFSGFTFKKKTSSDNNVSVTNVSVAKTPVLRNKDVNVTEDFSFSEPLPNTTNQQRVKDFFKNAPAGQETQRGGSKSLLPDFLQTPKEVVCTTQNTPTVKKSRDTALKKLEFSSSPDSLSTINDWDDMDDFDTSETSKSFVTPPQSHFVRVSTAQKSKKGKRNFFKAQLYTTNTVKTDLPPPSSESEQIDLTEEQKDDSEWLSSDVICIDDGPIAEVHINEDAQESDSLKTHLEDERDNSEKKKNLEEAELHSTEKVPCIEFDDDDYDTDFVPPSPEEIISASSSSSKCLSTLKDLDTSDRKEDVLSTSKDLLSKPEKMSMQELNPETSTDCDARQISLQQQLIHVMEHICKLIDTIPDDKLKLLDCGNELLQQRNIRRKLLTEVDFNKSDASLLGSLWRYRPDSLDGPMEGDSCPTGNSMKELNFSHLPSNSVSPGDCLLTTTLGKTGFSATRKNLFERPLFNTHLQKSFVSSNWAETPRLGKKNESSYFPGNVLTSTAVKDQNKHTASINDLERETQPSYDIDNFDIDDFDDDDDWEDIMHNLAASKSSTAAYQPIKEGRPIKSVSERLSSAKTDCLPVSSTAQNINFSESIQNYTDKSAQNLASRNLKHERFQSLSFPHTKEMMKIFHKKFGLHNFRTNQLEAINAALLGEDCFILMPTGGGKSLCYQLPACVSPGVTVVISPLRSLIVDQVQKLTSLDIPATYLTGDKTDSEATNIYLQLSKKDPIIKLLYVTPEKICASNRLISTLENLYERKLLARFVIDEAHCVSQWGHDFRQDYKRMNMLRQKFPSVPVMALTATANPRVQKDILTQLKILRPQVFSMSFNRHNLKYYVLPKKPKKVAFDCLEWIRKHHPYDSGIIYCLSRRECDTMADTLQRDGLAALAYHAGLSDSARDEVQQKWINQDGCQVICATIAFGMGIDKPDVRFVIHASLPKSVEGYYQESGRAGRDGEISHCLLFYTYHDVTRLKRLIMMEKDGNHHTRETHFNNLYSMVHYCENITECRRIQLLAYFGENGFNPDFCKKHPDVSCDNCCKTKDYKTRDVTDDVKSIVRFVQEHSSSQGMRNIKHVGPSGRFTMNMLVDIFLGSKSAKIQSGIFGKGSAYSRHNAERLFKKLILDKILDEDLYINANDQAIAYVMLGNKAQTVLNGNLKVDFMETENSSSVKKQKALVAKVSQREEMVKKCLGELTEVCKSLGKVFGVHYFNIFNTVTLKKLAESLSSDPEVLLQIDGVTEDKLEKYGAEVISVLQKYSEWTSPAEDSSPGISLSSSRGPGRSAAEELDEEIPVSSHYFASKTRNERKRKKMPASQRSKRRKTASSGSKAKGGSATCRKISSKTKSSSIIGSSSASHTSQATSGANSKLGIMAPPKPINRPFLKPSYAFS
Chain of BLM;DNA2-D277A (P51530 whole entry D277A, chain 2 of 2): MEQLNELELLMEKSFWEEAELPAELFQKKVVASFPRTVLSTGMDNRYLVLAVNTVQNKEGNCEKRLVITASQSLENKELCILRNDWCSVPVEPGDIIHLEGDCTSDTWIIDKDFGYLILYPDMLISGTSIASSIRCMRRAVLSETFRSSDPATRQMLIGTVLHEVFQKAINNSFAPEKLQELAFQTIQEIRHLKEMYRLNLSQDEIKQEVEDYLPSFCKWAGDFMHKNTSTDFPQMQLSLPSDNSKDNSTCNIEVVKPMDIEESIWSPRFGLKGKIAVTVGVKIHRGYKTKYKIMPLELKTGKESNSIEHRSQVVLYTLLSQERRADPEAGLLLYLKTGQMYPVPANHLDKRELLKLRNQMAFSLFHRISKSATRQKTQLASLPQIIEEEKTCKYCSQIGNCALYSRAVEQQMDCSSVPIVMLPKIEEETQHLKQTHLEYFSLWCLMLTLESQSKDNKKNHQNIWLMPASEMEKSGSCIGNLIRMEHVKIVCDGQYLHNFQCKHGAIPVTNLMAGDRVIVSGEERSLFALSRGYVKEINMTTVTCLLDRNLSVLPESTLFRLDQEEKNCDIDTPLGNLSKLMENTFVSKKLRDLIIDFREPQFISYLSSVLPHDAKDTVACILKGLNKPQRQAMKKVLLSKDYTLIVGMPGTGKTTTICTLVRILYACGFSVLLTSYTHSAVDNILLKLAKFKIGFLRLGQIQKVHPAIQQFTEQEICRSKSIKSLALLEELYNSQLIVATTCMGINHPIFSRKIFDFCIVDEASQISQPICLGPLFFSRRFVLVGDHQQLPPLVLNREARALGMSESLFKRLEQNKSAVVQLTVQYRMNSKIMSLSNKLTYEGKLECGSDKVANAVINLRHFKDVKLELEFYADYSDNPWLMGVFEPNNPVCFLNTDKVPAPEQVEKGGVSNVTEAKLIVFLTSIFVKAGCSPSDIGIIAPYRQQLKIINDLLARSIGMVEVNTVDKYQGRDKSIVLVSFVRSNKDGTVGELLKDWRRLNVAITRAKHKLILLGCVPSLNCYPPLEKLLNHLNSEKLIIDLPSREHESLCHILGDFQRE

B1: 80-mer dsDNA (dsDNA)
DNA 1: TTGATAAGAGGTCATTTGAATTCATGGCTTAGAGCTTAATTGCTGAATCTGGTGCTGGGATCCAACATGTTTTAAATATG
DNA 2: CATATTTAAAACATGTTGGATCCCAGCACCAGATTCAGCAATTAAGCTCTAAGCCATGAATTCAAATGACCTCTTATCAA
In the case of B1, the values for the binding result in the data set with Topo IIIα [1], in the data set with RMI1-RMI2 and in the data set with BLM;DNA2-D277A were “binds”, “no binding” and “binds”, respectively.

B2: 80-mer dsDNA, one end blocked by biotin-streptavidin (dsDNA)
DNA 1: B1 DNA 1
DNA 2: B1 DNA 2
modifications: 5' biotin on one strand (PSOL7475 or PSOL6214; which one not stated), streptavidin bound
B2: the binding result with Topo IIIα [2] was “binds”.

The record behind these values is article PMC4176181, “Multifaceted role of the Topo IIIα–RMI1-RMI2 complex and DNA2 in the BLM-dependent pathway of DNA break end resection”.
